The target of the assay is T1, recombinant hPD-L1 ectodomain (human, UniProt Q9NZQ7 19-238).
T1 construct: extracellular domain; Immobilised on a CM5 chip by amine coupling (2345 RU); also called rhPD-L1; rPD-L1
Kind of assay: SPR (Biacore T200), rhPD-L1 immobilised on CM5 chip, 1 µM peptide injected. (Surface plasmon resonance follows binding to a sensor surface in real time, without labels.)

T1 sequence (Q9NZQ7 19-238): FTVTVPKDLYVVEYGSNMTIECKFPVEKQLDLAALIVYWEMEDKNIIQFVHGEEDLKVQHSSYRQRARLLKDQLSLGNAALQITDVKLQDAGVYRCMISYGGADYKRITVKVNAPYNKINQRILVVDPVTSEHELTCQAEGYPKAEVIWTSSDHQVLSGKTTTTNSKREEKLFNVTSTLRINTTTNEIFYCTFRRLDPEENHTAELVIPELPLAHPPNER

B1: MVF-HER-2(266-296) (peptide)
peptide: KLLSLIKGVIVHRLEGVEGPSLLHCPALVTYNTDTFESMPNPEGRYTFGASCV
notes: Negative control peptide in SPR
As to B1, the SPR response was 20 RU.

B2: PD-1 (92-110) (peptide)
peptide: H-GAISLAPKAQIKESLRAEL-NH2
notes: Free peptide (H2N- at the N-terminus); also called free peptide
On to B2, for which the binding result is on record as “binds”.

B3: AC-PD-1 (45-64) (peptide)
peptide: Ac-KLAAFPEDRSQPGQDCRFR-NH2
notes: also called acetylated peptide
Take B3: the binding result is “binds”.

B4: PD-1 (73-90) (peptide)
peptide: H-DFHMSVVRARRNDSGTYL-NH2
notes: as for B2
For B4, the binding result is on record as “binds”.

B5: AC-PD-1 (73-90) (peptide)
peptide: Ac-DFHMSVVRARRNDSGTYL-NH2
notes: as for B3
With B5, the binding result is reported as “binds”.

B6: AC-PD-1 (92-110) (peptide)
peptide: Ac-GAISLAPKAQIKESLRAEL-NH2
notes: as for B3
For B6, the binding result is given as “binds”.

B7: PD-1 (45-64) (peptide)
peptide: H-KLAAFPEDRSQPGQDCRFR-NH2
notes: Free peptide (H2N- at the N-terminus); also called free peptide; 46-64
As for B7, the binding result is reported as “binds”.

These data come from US20200197498A1 (OHIO STATE INNOVATION FOUNDATION, published 2020).
